Positions count from the first letter of the chain named.
T1: recombinant human CD70 (Flag-TNC-CD70) (human, UniProt P32970 39-193)
T1 construct: extracellular domain; Captured by anti-Flag mAb in ELISA; as 'recombinant human CD70' immobilised on Biacore CM5 chips; TNC is for trimerisation; also called recombinant CD70; human recombinant CD70; not shown: Flag tag and TNC trimerisation domain
T1 sequence (looked up): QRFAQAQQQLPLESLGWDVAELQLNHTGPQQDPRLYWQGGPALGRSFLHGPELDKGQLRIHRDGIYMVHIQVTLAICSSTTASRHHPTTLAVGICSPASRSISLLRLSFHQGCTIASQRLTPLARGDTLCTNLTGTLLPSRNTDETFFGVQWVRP

T2: human CD70 expressed on the surface of cells (human, UniProt P32970 1-193)
T2 sequence (looked up): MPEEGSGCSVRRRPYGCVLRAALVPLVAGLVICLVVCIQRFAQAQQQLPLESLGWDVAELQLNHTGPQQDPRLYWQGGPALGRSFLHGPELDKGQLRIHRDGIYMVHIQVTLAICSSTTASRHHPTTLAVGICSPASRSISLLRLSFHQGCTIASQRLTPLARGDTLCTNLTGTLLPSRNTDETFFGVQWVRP

B1: 41D12 Fab (Fab, V domains shown)
VH: EVQLVESGGGLVQPGGSLRLSCAASGFTFSVYYMNWVRQAPGKGLEWVSDINNEGGTTYYADSVKGRFTISRDNSKNSLYLQMNSLRAEDTAVYYCARDAGYSNHVPIFDSWGQGTLVTVSS
VL: QAVVTQEPSLTVSPGGTVTLTCGLKSGSVTSDNFPTWYQQTPGQAPRLLIYNTNTRHSGVPDRFSGSILGNKAALTITGAQADDEAEYFCALFISNPSVEFGGGTQLTVLG
notes: Germlined 27B3 Fab, periplasmic fraction
B2: 39D5 Fab (Fab, V domains shown)
VH: B1 VH with V31G, S75A, S78T, A97V, L117T, S121A
VL: B1 VL with A2T, L24V, K25T, A82P, D83E, A86S, E87D, F89Y
notes: as for B1
B3: 53G1 Fab (Fab, V domains shown)
VH: B1 VH with S75A, S78T, R87K, A88P, A97V, L117T, T119I
VL: B1 VL with A2T, L10F, T11S, K25T, D32T, T55S, D62S, A86S, E87D
notes: as for B1
B4: 24E3 Fab (Fab, V domains shown)
VH: B1 VH with S75A, S78T, Y80T, R87K, A88P, V93L, A97V, L117Q, T119I, S121A
VL: QAVVTQEPSLSVSPGGTVTLTCGLTSGSVTSDNFPVWYQQTPGQAPRLLIYTINSRHSGVPSRFSGSITGNKAILTITGAQPEDEADYYCALYLENFANEFGGGTRLTVLG
notes: Llama-derived Fab
B5: 33D8 Fab (Fab, V domains shown)
VH: B1 VH with S75A, S78T, Y80T, R87K, A88P, V93L, A97V, L117Q, T119I, S121A
VL: QSALTQPSTVSVSLGQTARITCRGDSLERYGTNWYQQKPGQAPVLVIYDDDSRPSGIPERFSGSSSGATAALTISGAQAEDEGDYYCQSADSSGNAVFGGGTHLTVLG
notes: Llama-derived Fab
B6: 36A9 Fab (Fab, V domains shown)
VH: B1 VH with S78T, Y80T, R87K, A88P, A97V, L117Q, T119I
VL: B1 VL with A2T, L10F, T11S, A86S, E87D
notes: as for B1
B7: 42D12 Fab (Fab, V domains shown)
VH: B1 VH with S78T, A97V, L117Q
VL: B1 VL with L10F, T11S, K25T, D32T, D62S
notes: as for B1
B8: 41H8 Fab (Fab, V domains shown)
VH: B1 VH with S78T, L117Q, S121A
VL: B1 VL with L10F, T11S, K25T, D32T, T55S, A82P, D83E, A86S, E87D
notes: as for B1
B9: 40F1 Fab (Fab, V domains shown)
VH: B1 VH with T57A, L117Q
VL: B1 VL with L10F, T11S
notes: as for B1
B10: 35G2 Fab (Fab, V domains shown)
VH: B1 VH with S75A, S78T, R87K, A88P
VL: B1 VL with A2T, L10F, T11S, D32T, T55S, E87D
notes: as for B1
B11: 53F1 Fab (Fab, V domains shown)
VH: B1 VH with S75A, S78T, Y80T, R87K, A88P, A97V, L117Q, S121A
VL: B1 VL with L10F, T11S, A86S, E87D
notes: as for B1
B12: 35G1 Fab (Fab, V domains shown)
VH: B1 VH with L18V, S75A, S78T, R87K, A88P, S121A
VL: B1 VL with A2T, L10F, T11S, T55S, A86S, E87D
notes: as for B1
B13: 35G3 Fab (Fab, V domains shown)
VH: B1 VH with Y80T, R87K, A88P
VL: B1 VL with L10F, T11S, T55S, T78R, F89Y
notes: as for B1
B14: 39C3 Fab (Fab, V domains shown)
VH: B1 VH with E6A, S78T, L117T
VL: B1 VL with L10F, T11S, D62S, A86S, E87D, F89Y
notes: as for B1
B15: 36D6 Fab (Fab, V domains shown)
VH: B1 VH with S75A, S78T, R87K, A88P, V93L, A97V, L117T
VL: B1 VL with A2T, D32T, T55S, A86S, E87D
notes: as for B1
B16: 36G2 Fab (Fab, V domains shown)
VH: B1 VH with S75A, Y80T, A97V, L117Q
VL: B1 VL with A82P, D83E, A86S, E87D, F89Y
notes: as for B1
B17: 59D10 Fab (Fab, V domains shown)
VH: EVQLVESGGGLVQPGGSLRLSCAASELSFSISEMTWVRQAPGKGLEWVSGISGVTGGSSTSYADSVKGRFTISRDNDKNTLYLQMNSLIPEDTAVYYCATTSGTYYFIPEYEYWGQGTQVTVSS
VL: QSVLTQPPSVSGSPGKTVTISCAGTSSDVGYGYYVSWYQQFPGMAPKLLIYDVNKRASGIADRFSGSKAGNTASLTISGLQSEDEADYYCASYRSSANAVFGGGTHLTVLG
notes: Llama-derived Fab
B18: 8B12 Fab (Fab, V domains shown)
VH: EVQLVESGGGLVQPGGSLRLSCAASGFTFSVYYMNWVRQAPGKGLEWVSDINNEGDTTYYADSVKGRFTISRDNAKNTLTLQMDSLKPEDTALYYCVRDAGYSNHVPIFDSWGQGTQVIVAS
VL: QTVVTQEPSLSVSPGGTVTLTCGLSSGSVTSSNYPGWYQQTPGQAPRVLIYNTNNRHSGVPSRYSGSISGNKAALTITGAEPEDEADYYCNLHLGSYTPMFGGGTKLTVLG
notes: Llama-derived Fab
B19: 45B12 Fab (Fab, V domains shown)
VH: B18 VH with V31A, V48I, D56Y, T57E, L93R, P107Q
VL: QAVLTQPSSVSVSLGQTAKITCQGGNLGLYGANWYQQNPGRAPILLIYGDNYRPLGIPERFTISKSGGTATLTIDGAQAEDESDYYCQSADYSGNSVFGGGTKLTVLG
notes: Llama-derived Fab
B20: 45F8 Fab (Fab, V domains shown)
VH: B18 VH with V31A, V48I, D56Y, T57E, L93R, P107Q
VL: B19 VL with K19N, I47F, R53M, D81N, A90S, S93P
notes: Llama-derived Fab
B21: 45D9 Fab (Fab, V domains shown)
VH: B18 VH with V31A, V48I, D56Y, T57E, L93R, P107Q
VL: B19 VL with G28W, Y52Q
notes: Llama-derived Fab
B22: 24B6 chimeric llama-human mAb (antibody, human IgG1, V domains shown)
VH: EVQLQESGGGVVQPGGSLRLSCAASGFTFDDYAMSWVRQAPGKGLEWVSSIYMYDSSTYYADSVKGRFTISTDNAKNTVYLQMNSLKSEDTAVYYCAKDINRSYGSSWSHFGPIFSSWGQGTQVTVSS
VL: QPVLTQPSAVSVSLGQTARITCQGGYYTHWYQQKPGQAPVLVIYINNNRPSGIPERFSGSISGNTATLTISGAQVEDEADYYCQSGSSSTIPVFGGGTKLTVLG
B23: 9B2 chimeric llama-human mAb (antibody, human IgG1, V domains shown)
VH: QLQVVESGGGLMQPGGSLRLSCAASGFTFSGSAMSWVRQAPGKGLEWVSSIYSHSMYTYYADSVKSRFTISTDNAKNTLYLQMNSLKPDDTAVYYCAASSDYEGLFVSWGQGTQVTVSS
VL: QAVLTQPPSLSASPGSSVRLTCTLNSANSVGSYDISWYQQKAGSPPRYLLYYYSDSLSHQGSGVPSRFSGSTDASANAGLLLISGLQPEDEADYYCSAYNRGSHVFGGGTKLTVLG

Assays:
[1] = biological target: T1, recombinant human CD70 (Flag-TNC-CD70); experiment: Biacore; CD70 coated CM5 chip; Fab in periplasmic fraction
Procedure: Phage eluted from rounds 3, 4 and 5 of selection were transfected into TG1 and plated clonally; individual clones were picked randomly for further analysis. Periplasmic fractions containing Fabs were prepared from IPTG induced small scale cultures the off rate of each Fab was determined using a CD70 coated CM5 chip in a Biacore binding assay. Clones with Fab having off rates similar to that of 27B3 were sequenced.

[2] = biological target: T1, recombinant human CD70 (Flag-TNC-CD70); experiment: Biacore; recombinant human CD70 on CM5 chip; Fab injected
Procedure: Off-rates of the purified llama-derived anti-CD70 blocking Fabs were determined using the Biacore. Recombinant human CD70 was immobilized on a CM5 Biacore chip. The immobilization was performed in accordance with a method provided by Biacore and by using the NHS/EDC kit (Biacore AB): after activation of the chip, a solution of 50 μg/ml of recombinant CD70 in 10 mM acetate buffer with pH of 5 was prepared and 1 μl of this solution (50ng) was injected resulting in a surface density of approximately 1000 RU.
Fabs for the CD70 mAbs ARGX-110, MDX2H5 and SGN70 were prepared by […] digestion (SGN70 and MDX69A7 are described elsewhere herein, MDX2H5, also referred to as MDX1411, is described in WO2008/074004 FIGS. 1A and 1B). Fabs, at a concentration of approximately 100-400 μg/ml, were diluted 6-fold in hepes-buffered saline (0.1M Hepes, 1.5M NaCl, 30 mM EDTA, 0.5% v/v surfactant P20). They were injected (30 μl) and passed through the flow cells at a flow rate of 30 μl/min. After binding of the Fab to CD70, the off-rate was monitored for a period of 10 minutes. After the dissociation, the flow cell surfaces were regenerated by injecting 5 μl of 10 mM NaOH. Sometimes multiple injections of NaOH were needed to regenerate the surfaces depending on the affinity of the Fabs. Off-rate analysis was done by applying the BIAevaluation software. First, the sensogram of the blank runs were subtracted from those obtained with the coated flow cell. […] Moreover, the off-rate of CD27 for CD70 was determined as well.

[3] = biological target: T1, recombinant human CD70 (Flag-TNC-CD70); experiment: inhibition ELISA; Flag-TNC-CD70 captured by anti-Flag mAb; competitor CD27-Fc
Procedure: From selected phage transfected into TG1, individual colonies were picked randomly for growth in 96 well plates. After IPTG induction according to standard protocols periplasmic fractions (penis) containing Fabs were prepared. […] In this assay, Flag-TNC-CD70 is captured by an anti-Flag mAb and binding of CD27-Fc is detected via a biotinylated anti-CD27 mAb and strep-HRP in the absence or presence of CD70 Fabs (FIGS. 2 and 3) or CD70 mAbs (FIG. 4). In FIG. 2B it can be seen that 27B3, which has an identical VH as 9D1, but contains a somewhat different light chain, seems to block binding of CD27 to CD70 more efficiently, which was in line with the better off rate of this Fab as measured on Biacore (data not shown). Table 3 indicates the blocking potency (expressed as IC50) for the various llama-human chimeric mAbs tested in the CD70 inhibition ELISA. […] FIG. 3 is a composite of an experiment testing llama CD70 Fabs for blocking activity (in the inhibition ELISA, see white bars) and for CD70 binding (binding ELISA, black bars). For the binding ELISA, Flag-TNC-CD70 is captured by an anti-Flag mAb and binding of the Fabs is detected using an anti-myc-HRP mAb, which recognizes the MYC tag fused to the C-terminus of the Fd fragment. For comparison purposes, known monoclonal antibodies to CD70 (SGN70 described in US 2010/0129362 A1, clone 1F6; and MDX69A7 described in WO2008/074004 FIGS. 5A and 5B) were tested in parallel. […] Of interest is clone 59D10, which as Fab has no blocking activity, but when converted into a chimeric IgG was antagonistic (see Table 3). Amino acid sequences of the VH and VL domains of binding and blocking llama-derived Fab clones are shown elsewhere herein (Tables 6-9).

[4] = biological target: T2, human CD70 expressed on the surface of …; experiment: cell-based or functional assay

Binder	koff [1]	koff [2]	other results
B1	0.00023 s⁻¹	–	–
B2	0.00012 s⁻¹	–	–
B3	0.0002 s⁻¹	–	–
B4	–	8e-05 s⁻¹	–
B5	–	0.00045 s⁻¹	–
B6	0.00013 s⁻¹	–	–
B7	0.00016 s⁻¹	–	–
B8	0.00022 s⁻¹	–	–
B9	0.00016 s⁻¹	–	–
B10	0.00017 s⁻¹	–	–
B11	0.00023 s⁻¹	–	–
B12	0.00023 s⁻¹	–	–
B13	0.00017 s⁻¹	–	–
B14	0.00025 s⁻¹	–	–
B15	0.00014 s⁻¹	–	–
B16	0.00011 s⁻¹	–	–
B17	–	0.00139 s⁻¹	–
B18	–	0.00036 s⁻¹	–
B19	–	0.00021 s⁻¹	–
B20	–	0.0002 s⁻¹	–
B21	–	0.00021 s⁻¹	–
B22	–	–	IC50 [3]: 0.42 µg/mL
B23	–	–	IC50 [3]: 0.126 µg/mL; IC50 (ng/ml), IL-8 secretion in Raji / HT1080-CD27 co-culture assay [4]: 213 ng/mL
